T1: SSBP1 wild-type (Homo sapiens, UniProt Q04837 17-148)
T1 sequence: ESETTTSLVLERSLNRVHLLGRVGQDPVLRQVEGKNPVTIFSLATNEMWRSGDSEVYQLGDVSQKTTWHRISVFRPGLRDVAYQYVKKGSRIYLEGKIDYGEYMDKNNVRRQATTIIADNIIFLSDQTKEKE


Columns and labels:
SSBP1 wild-type = biological target: T1, SSBP1 wild-type; assay: EMSA; probe 0.25 uM (far above Kd); legend gives protein 0-2 nM, main text figure 1 uM; units doubtful; 50 mM Tris pH 7.5, 150 mM NaCl, 10% glycerol, 30 min at room temperature; 2% agarose gel in 1x TBE; settings: protein: recombinant; tags: IMAC tag (probably His); chain copies: 4
[1] = biological target: the molecule itself; assay: cross-linking; glutaraldehyde cross-linking of recombinant SSBP1 proteins, SDS-PAGE with Coomassie staining and SSBP1 immunoblot, band intensities quantified with ImageJ (n = 3)

| Binder | Kd (SSBP1 wild-type) [nM] | binding result [1] |
| --- | --- | --- |
| GGACTATTTATTCAATATATTTAAGAACTAATTCCAGCTGAGCGCCGG (ssDNA) [EMSA ssDNA probe] | 11.2 ± 0.89 | – |
| single-stranded DNA-binding protein 1 (SSBP1), wild-type recombinant protein (natural protein, human, UniProt Q04837 17-148, looked up, A human SSBP1 cDNA clone (Origene RC215106) is named only for expression in mammalian cells; also called wild-type SSBP1; source: E. coli BL21 (DE3), purified (HiTrap IMAC, dialysis, Superdex 200 SEC)) ESETTTSLVLERSLNRVHLLGRVGQDPVLRQVEGKNPVTIFSLATNEMWRSGDSEVYQLGDVSQKTTWHRISVFRPGLRDVAYQYVKKGSRIYLEGKIDYGEYMDKNNVRRQATTIIADNIIFLSDQTKEKE | – | binds |

Reference: paper PMC11299580, “Discovery of novel disease-causing mutation in SSBP1 and its correction using adenine base editor to improve mitochondrial function” (Molecular Therapy. Nucleic Acids, 2023)
